Laboratory results taken from patent US9243044B2, “Anticoagulant polypeptide and applications thereof” (GUANGDONG MEDICAL COLLEGE, priority 2011, dated 2016).

T1: human fXIIa (Homo sapiens, UniProt P00748)
T1 construct: Human coagulation factors IIa (thrombin), Xa, XIa, XIIa, EGR-fXa; purchased Haematologic Technologies Inc (United States)
T1 sequence (P00748 373-615 limits assumed): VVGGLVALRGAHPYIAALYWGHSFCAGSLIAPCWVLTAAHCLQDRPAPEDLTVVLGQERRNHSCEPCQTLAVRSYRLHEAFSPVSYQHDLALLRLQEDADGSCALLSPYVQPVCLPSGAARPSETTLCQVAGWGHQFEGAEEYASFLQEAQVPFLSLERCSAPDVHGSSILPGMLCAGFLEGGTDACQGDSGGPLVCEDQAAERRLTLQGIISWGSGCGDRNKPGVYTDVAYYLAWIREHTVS
T1 sequence (P00748 20-372 limits assumed): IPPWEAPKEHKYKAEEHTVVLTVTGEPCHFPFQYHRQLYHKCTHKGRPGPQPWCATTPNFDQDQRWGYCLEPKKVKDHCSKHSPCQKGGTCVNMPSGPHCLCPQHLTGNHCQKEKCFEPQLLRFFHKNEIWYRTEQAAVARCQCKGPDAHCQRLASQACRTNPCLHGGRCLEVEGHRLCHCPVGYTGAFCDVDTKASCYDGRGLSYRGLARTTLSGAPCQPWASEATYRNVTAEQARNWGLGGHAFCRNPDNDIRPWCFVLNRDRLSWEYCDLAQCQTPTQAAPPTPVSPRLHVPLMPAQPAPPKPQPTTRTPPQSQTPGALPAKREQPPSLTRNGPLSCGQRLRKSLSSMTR

B1: NAPTin-4 (protein)
chain: NPSCGENERHDECSRKECDPKCKYDGTEEKDDEKPVVCLTRVCYGDCICRDGFLRNKNGACVKAEDCELDNME
modifications: Sequence derived from Ancylostoma caninum or Synthetic
B2: NAPTin-9 (protein)
chain: NPSCGENERHDECSRKECDPKCKYDGTEEKDDEKPVVCLTRVCYGDCICRDGFLRNKNGACVKAEDCELDNMEFI
modifications: Sequence derived from Ancylostoma caninum or Synthetic
B3: NAPTin-8 (protein)
chain: NPSCGENERHDECSRKECDPKCKYDGTEEKDDEKPVVCLTRVCYGDCICRDGFLRNKNGACVKAEDCELDNMEF
modifications: Sequence derived from Ancylostoma caninum or Synthetic
B4: NAPTin-2 (protein)
chain: NPSCGENERHDECSRKECDPKCKYDGTEEKDDEKPVVCLTRVCYGDCICRDGFLRNKNGACVKAEDCELDN
modifications: Sequence derived from Ancylostoma caninum or Synthetic
B5: NAPTin-6 (protein)
chain: NPSCGENERHDECSRKECDPKCKYDGTEEKDDEKPVVCLTRVCYGDCICRDGFLRNKNGACVKAEDCE
modifications: Sequence derived from Ancylostoma caninum or Synthetic

What was measured:
Type in all cases: biochemical
human fXIIa = target: T1, human fXIIa; assay: Chromogenic assay, fXIIa
From the text: (§1) The recombinant anticoagulant polypeptides in the present invention were expressed in E. coli and purified in our laboratory, of which the activities against coagulation factors were investigated by chromogenic assays. Human coagulation factors IIa (thrombin), Xa, XIa, XIIa, EGR-fXa were products of Haematologic Technologies Inc (United States). Recombinant fVIIa was products of Novo-Nordisk (Denmark). Recombinant soluble tissue factor (sTF) was purchased from Protgen (Beijing, China). The following chromogenic substrates were used for these coagulation factor assays: S2765 for human fXa, S2288 for human fVIIa and fIIa, 52366 for human fXIa and fXIIa, respectively.
(§2) The chromogenic assays were carried out in a total reaction volume of 100 μl in individual wells of a 96-well microtiter plate. 50 μl fIIa, fXa, fXIa, or fXIIa (final concentration: 1 nM) was incubated with 10 μl recombinant anticoagulant polypeptide at various concentrations (or PBS control group) Assays for the detection activity of fVIIa: 50 μl fVIIa+TF (1 μM) and EGR-fXa (final concentration 500 nM) was incubated for 15 mins at 25° C., respectively. After the addition of 40 μl of prewarmed chromogenic substrate to a final concentration of 400 μM, the changes of absorbance at 405 nm were monitored by using an E1x808 kinetic microtiter reader. The data were used to calculate the velocities of response.

normal human plasma [1] = assay: aPTT assay in normal human plasma; conditions: for prolongation of aPTT (in words): 100 nM and 500 nM; for aPTT: normal human plasma; for multiples of prolonging aPTT: ratio of mean aPTT to blank control
Method: (§3) The recombinant anticoagulant polypeptides were expressed in Escherichia coli and purified in our laboratory. Anticoagulant activity was determined by measuring the aPTT and PT.
For the aPTT assay, 10 μl recombinant protein at various concentrations was mixed with 50 μl fresh normal human plasma, 20 μl aPTT reagent (MDC Hemostasis, Germany) and incubated for 15 mins at 37° C. 20 μl 0.05 mol/L prewarmed CaCl2 was then added to initiate the clotting reaction. The clotting time was measured with the absorbance at 630 nm by using an E1x808 kinetic microtiter reader (BioTek, United States). Each concentration was repeated 3 times. The ratio of the mean aPTT value of each concentration to blank control group is multiples of prolonging the aPTT.

human fXa = target: T2, human fXa (Homo sapiens, UniProt P00742); assay: Chromogenic assay, fXa
T2 construct: Human coagulation factors IIa (thrombin), Xa, XIa, XIIa, EGR-fXa; purchased Haematologic Technologies Inc (United States)
From the text: as §1, §2

fVIIa/TF = target: T3, fVIIa/TF (Homo sapiens, UniProt P08709); assay: Chromogenic assay, fVIIa/TF
T3 construct: Recombinant fVIIa was products of Novo-Nordisk (Denmark); purchased Novo-Nordisk (Denmark) for fVIIa; Protgen (Beijing, China) for sTF; Haematologic Technologies Inc for EGR-fXa
From the text: as §1, §2

normal human plasma [2] = assay: PT assay in normal human plasma; conditions: for PT: normal human plasma
Method: as §3
For the PT assay, 10 μl recombinant protein at various concentration was mixed with 45 μl normal human plasma and incubated for 15 mins at 37° C. 45 μl prewarmed PT reagent (MDC Hemostasis, Germany) was then added and the clotting time was measured with the absorbance at 630 nm by using an E1x808 kinetic microtiter reader (BioTek, United States). Each concentration was repeated 3 times.

human fIIa (thrombin) = target: T4, human fIIa (thrombin) (Homo sapiens, UniProt P00734); assay: Chromogenic assay, fIIa (thrombin)
T4 construct: Human coagulation factors IIa (thrombin), Xa, XIa, XIIa, EGR-fXa; purchased Haematologic Technologies Inc (United States)
From the text: as §1, §2

human fXIa = target: T5, human fXIa (Homo sapiens, UniProt P03951); assay: Chromogenic assay, fXIa; conditions: for inhibition of the activity of fXIa: 100 nM; for inhibition of the activity of fXIa (in words): 200 nM
T5 construct: Human coagulation factors IIa (thrombin), Xa, XIa, XIIa, EGR-fXa; purchased Haematologic Technologies Inc (United States)
From the text: as §1, §2

T3 sequence (P08709 61-212 limits assumed): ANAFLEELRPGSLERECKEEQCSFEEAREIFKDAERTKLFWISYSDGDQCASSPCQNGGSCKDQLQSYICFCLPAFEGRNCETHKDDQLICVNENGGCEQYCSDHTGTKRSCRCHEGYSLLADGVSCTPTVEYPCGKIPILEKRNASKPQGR
T3 sequence (P08709 213-466 limits assumed): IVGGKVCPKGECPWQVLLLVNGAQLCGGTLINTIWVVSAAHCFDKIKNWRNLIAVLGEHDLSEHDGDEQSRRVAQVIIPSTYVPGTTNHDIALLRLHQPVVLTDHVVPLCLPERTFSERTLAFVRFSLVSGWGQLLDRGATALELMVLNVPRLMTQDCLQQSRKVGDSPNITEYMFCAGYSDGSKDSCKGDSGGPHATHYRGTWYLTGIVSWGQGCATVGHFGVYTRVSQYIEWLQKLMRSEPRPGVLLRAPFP
T3 sequence (P13726 33-251 partner limits assumed): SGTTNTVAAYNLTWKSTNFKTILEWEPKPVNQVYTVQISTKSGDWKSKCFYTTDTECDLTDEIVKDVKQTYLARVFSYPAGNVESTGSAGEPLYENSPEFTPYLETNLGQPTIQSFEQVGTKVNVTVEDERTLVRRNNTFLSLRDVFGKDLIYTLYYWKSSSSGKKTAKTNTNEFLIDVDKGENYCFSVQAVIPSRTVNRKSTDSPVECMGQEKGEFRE
T2 sequence (P00742 41-179 limits assumed): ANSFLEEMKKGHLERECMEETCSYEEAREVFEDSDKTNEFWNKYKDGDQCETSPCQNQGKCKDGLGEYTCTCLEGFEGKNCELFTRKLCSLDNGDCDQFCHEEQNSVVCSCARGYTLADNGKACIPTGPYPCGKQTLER
T2 sequence (P00742 235-488 limits assumed): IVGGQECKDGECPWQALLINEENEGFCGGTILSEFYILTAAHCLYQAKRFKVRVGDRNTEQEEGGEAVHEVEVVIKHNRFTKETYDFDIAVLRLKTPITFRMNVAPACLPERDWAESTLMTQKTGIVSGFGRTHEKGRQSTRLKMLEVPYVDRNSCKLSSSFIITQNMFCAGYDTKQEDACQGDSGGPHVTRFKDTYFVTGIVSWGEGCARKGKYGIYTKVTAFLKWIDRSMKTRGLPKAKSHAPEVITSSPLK
T5 sequence (P03951 19-387 limits assumed): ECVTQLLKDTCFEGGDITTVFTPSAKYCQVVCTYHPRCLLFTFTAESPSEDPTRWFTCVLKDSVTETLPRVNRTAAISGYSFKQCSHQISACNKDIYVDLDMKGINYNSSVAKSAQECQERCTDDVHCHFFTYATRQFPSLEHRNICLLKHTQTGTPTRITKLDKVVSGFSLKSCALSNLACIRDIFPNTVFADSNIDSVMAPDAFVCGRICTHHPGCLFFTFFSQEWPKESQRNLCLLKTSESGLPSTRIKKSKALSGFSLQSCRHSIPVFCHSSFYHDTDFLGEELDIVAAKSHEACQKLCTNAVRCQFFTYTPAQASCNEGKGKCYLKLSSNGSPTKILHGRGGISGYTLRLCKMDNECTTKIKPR
T5 sequence (P03951 388-625 limits assumed): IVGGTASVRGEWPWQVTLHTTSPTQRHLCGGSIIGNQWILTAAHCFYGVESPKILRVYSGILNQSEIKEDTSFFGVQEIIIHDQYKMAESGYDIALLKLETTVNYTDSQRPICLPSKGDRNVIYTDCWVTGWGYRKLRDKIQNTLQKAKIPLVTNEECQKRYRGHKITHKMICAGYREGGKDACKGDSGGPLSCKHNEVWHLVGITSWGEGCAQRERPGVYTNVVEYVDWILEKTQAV

| Molecule | effect on fXIIa activity (in words) (human fXIIa; 100 nM) | effect on fXIIa activity (in words) (human fXIIa; 200 nM) | prolongation of aPTT (in words) (normal human plasma [1]) | aPTT (normal human plasma [1]; 100 nM) | multiples of prolonging aPTT (normal human plasma [1]; 100 nM) | aPTT (normal human plasma [1]; 500 nM) | multiples of prolonging aPTT (normal human plasma [1]; 500 nM) | effect on fXa activity (in words) (human fXa; 100 nM) | effect on fXa activity (in words) (human fXa; 200 nM) | effect on fVIIa/TF activity (in words) (fVIIa/TF; 100 nM) | effect on fVIIa/TF activity (in words) (fVIIa/TF; 200 nM) | prolongation of PT (in words) (normal human plasma [2]; 100 nM and 500 nM) | PT (normal human plasma [2]; 100 nM) | PT (normal human plasma [2]; 500 nM) | effect on fIIa activity (in words) (human fIIa (thrombin); 100 nM) | effect on fIIa activity (in words) (human fIIa (thrombin); 200 nM) | inhibition of the activity of fXIa (human fXIa) | inhibition of the activity of fXIa (in words) (human fXIa) | inhibition of the activity of fVIIa/TF (fVIIa/TF; 200 nM) | prolongation of PT (in words) (normal human plasma [2]; 100 nM) | other results |
| --- | --- | --- | --- | --- | --- | --- | --- | --- | --- | --- | --- | --- | --- | --- | --- | --- | --- | --- | --- | --- | --- |
| B1 | without affecting | without affecting | significantly prolong aPTT | 78.7 ± 3.7 s | 1.96 | 233.3 ± 4.5 s | 5.82 | without affecting | without affecting | without affecting | without affecting | couldn't prolong PT | 12.4 ± 0.9 s | 11.6 ± 0.3 s | without affecting | without affecting | more than 90% | almost completely inhibited |  |  |  |
| B2 | without affecting |  | significantly prolong aPTT | 80.8 ± 3.2 s | 2.01 | 235.3 ± 5.4 s | 5.87 | without affecting |  | without affecting |  |  | 13.0 ± 0.7 s | 19.6 ± 0.9 s | without affecting |  | more than 90% |  | about 15% | almost couldn't prolong PT | prolongation of PT (normal human plasma [2]; 500 nM): less than 1.6 times |
| B3 | without affecting |  | significantly prolong aPTT | 79.7 ± 2.9 s | 1.99 | 238.6 ± 8.1 s | 5.95 | without affecting |  | without affecting |  |  | 12.8 ± 0.7 s | 17.6 ± 0.6 s | without affecting |  | more than 90% |  | about 15% | almost couldn't prolong PT | prolongation of PT (normal human plasma [2]; 500 nM): less than 1.6 times |
| B4 | without affecting | without affecting | significantly prolong aPTT | 80.2 ± 5.1 s | 2.0 | 221.8 ± 6.3 s | 5.53 | without affecting | without affecting | without affecting | without affecting | couldn't prolong PT | 11.7 ± 1.1 s | 12.6 ± 0.5 s | without affecting | without affecting | more than 90% | almost completely inhibited |  |  |  |
| B5 | without affecting | without affecting | significantly prolong aPTT | 79.5 ± 3.1 s | 1.98 | 215.4 ± 5.6 s | 5.37 | without affecting | without affecting | without affecting | without affecting | couldn't prolong PT | 12.4 ± 0.9 s | 12.6 ± 0.4 s | without affecting | without affecting | more than 90% | almost completely inhibited |  |  |  |
